IntAct's records for PubMed 9025305

What was measured:
[1] = target: rbp1a_arath RANBP1A (UniProt Q9LMK7)
[2] = target: rbp1b_arath RANBP1B (UniProt Q8RWG8)
rbp1b_arath RANBP1B, sequence (Q8RWG8 whole entry): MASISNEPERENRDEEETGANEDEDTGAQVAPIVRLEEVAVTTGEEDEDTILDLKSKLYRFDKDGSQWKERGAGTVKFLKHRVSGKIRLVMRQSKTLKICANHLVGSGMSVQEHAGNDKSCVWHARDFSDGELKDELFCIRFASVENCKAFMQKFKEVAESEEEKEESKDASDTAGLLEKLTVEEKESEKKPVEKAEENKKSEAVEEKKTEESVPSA

GTP-binding nuclear protein Ran-1 (Arabidopsis thaliana (Mouse-ear cress)), P41916 T24D, sequence (P41916 whole entry T24D): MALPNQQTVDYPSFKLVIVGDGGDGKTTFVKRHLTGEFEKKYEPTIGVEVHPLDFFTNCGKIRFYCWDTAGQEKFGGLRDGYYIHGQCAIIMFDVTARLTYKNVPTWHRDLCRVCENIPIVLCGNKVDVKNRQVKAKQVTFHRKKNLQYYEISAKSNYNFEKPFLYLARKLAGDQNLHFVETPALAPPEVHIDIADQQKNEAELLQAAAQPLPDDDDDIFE
rbp1a_arath RANBP1A, sequence (Q9LMK7 whole entry): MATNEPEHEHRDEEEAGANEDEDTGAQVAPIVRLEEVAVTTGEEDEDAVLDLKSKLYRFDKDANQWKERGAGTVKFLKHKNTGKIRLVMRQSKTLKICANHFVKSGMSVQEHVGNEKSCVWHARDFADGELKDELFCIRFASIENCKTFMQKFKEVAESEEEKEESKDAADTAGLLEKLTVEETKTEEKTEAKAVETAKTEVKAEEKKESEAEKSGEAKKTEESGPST

effect of a mutation on the interaction [1]: disrupting interaction
effect of a mutation on the interaction [2]: disrupting interaction
Substance: GTP-binding nuclear protein Ran-1 (Arabidopsis thaliana (Mouse-ear cress)), P41916 T24D
